Assay results taken from article PMC11063129.

Target: T1, Twinkle (mitochondrial DNA helicase) (human, UniProt Q96RR1 43-684, del1-42)
T1 sequence: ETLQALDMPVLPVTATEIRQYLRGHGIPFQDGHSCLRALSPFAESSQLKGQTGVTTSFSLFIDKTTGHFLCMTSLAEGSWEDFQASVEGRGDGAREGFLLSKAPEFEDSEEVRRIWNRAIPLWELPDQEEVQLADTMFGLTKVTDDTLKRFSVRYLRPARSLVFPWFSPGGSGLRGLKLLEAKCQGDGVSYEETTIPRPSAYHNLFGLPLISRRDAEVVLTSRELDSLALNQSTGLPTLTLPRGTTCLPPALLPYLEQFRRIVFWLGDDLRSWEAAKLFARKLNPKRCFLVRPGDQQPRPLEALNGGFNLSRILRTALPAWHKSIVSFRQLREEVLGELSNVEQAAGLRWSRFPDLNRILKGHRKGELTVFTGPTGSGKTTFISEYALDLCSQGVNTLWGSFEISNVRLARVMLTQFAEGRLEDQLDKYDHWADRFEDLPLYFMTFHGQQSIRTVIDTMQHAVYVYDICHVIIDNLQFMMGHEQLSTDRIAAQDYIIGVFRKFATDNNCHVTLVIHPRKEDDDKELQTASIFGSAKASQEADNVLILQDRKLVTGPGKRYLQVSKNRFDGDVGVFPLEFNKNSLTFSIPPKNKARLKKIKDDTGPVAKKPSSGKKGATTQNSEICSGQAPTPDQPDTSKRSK
Assay: FAM fluorescence quenching titration

TTTTTTTTTTTTTTTTTTTTTT (ssDNA) [BHQ1-dT22]
Kd: 27.7 ± 3.8 nM
